Data on one molecule can be found in paper PMC4777398 (PLoS ONE, 2016).

In general, Kd refers to the equilibrium constant for the complex coming apart. A higher Kd goes with lower affinity.

The target of this experiment is pre-dimerized IMPα2/IMPβ1 heterodimer (GST-fused mouse proteins) (mouse, UniProt P52293 1-529; P70168 1-876). Nature of the experiment: AlphaScreen or HTRF. The following applies: both partners purified.

B1: His6-GFP-fused wt P-CTD (rabies virus P-protein C-terminal domain) (domain or fragment)
chain: VAQVAPGPPALEWSATNEEDDLSVEAEIAHQIAESFSKKYKFPSRSSGIFLYNFEQLKMNLDDIVKEAKNVPGVTRLAHDGSKIPLRCVLGWVALANSKKFQLLVEADKLSKIMQDDLNRYTSC
In turn, B1 returned a dissociation constant (Kd) of 1.7 ± 0.6 nM.
